± gives the standard deviation of the averaged measurements.
system: Saccharomyces cerevisiae; assay: protein stability index of tFT-peptide fusion (C-terminal peptide) (PSI (0-1 scale)); higher = more stable (slower turnover); conditions: genetic background: wild type; temperature: 30 C
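Also: PSI is a weighted mean of sequencing reads over stability bins, variants kept only with over 10 reads, mCherry proximal and sfGFP distal, peptide attached via GGGS linker.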

Row | Sequence | protein stability index
1 | VMSGPSGARRIW | 0.701 ± 0.055
2 | VMVVKSSSNTNI | 0.641 ± 0.0077
3 | VMWVGAGVSLSC | 0.6411 ± 0.0041
4 | VNCFVYGKCCSG | 0.648 ± 0.072
5 | VPDRIFRSASQT | 0.714 ± 0.0049
6 | VPFDFFVYFFEF | 0.5861 ± 0.0018
7 | VPIRSGYLRPNF | 0.573 ± 0.038
8 | VPLRLSTVSFGP | 0.746 ± 0.12
9 | VPPLFALAPPAP | 0.681 ± 0.029
10 | VPPLPPDSCTVT | 0.699 ± 0.073
11 | VPPPPPCTIPFP | 0.678 ± 0.07
12 | VPSLAVPPEGSV | 0.678 ± 0.06
13 | VPSPLPLPPLAP | 0.722 ± 0.036
14 | VPVAGSFVGIRF | 0.6753 ± 0.004
15 | VPWVFVYGEGVR | 0.734 ± 0.024
16 | VPYLPPHLPLPP | 0.71 ± 0.043
17 | VQASQFRFSVPL | 0.632 ± 0.013
18 | VQAWYWGFFCST | 0.785 ± 0.036
19 | VQPAGLEFGPLS | 0.6457 ± 0.0015
20 | VQSVIEPSIRYA | 0.648 ± 0.014
21 | VRCSLPSPSPRP | 0.77 ± 0.015
22 | VRDGPRCPVACP | 0.621 ± 0.02
23 | VREMGSPGLYRP | 0.713 ± 0.01

Row | Sequence | protein stability index
24 | VRFRCIPGSPVC | 0.643 ± 0.0094
25 | VRFVVVRRFRLP | 0.649 ± 0.0076
26 | VRGKYNNGNKKM | 0.675 ± 0.013
27 | VRGMGGIGRCVG | 0.657 ± 0.074
28 | VRGRGSGGGVAG | 0.675 ± 0.065
29 | VRGVCGVGFGVW | 0.604 ± 0.046
30 | VRHYSSNFAPFI | 0.676 ± 0.025
31 | VRIGSEGPGREE | 0.677 ± 0.03
32 | VRLHVPLQRFMK | 0.73 ± 0.029
33 | VRLIQLLFTLRT | 0.53 ± 0.062
34 | VRLRGEGCGWGG | 0.7158 ± 0.0022
35 | VRQKTPREQRVY | 0.701 ± 0.059
36 | VRQRADSCEAHA | 0.659 ± 0.056
37 | VRQSCGSRGFFF | 0.729 ± 0.023
38 | VRRAGVGEGITG | 0.671 ± 0.052
39 | VRRGGGGGGYGI | 0.72 ± 0.031
40 | VRRGGRARRRGS | 0.698 ± 0.016
41 | VRRHPQYPLLRV | 0.541 ± 0.0099
42 | VRSLLGLPLPGL | 0.788 ± 0.041
43 | VRSSLDGDGLCG | 0.6869 ± 0.0046
44 | VRTSGRCCPTGP | 0.641 ± 0.036
45 | VRVFLSNALFHH | 0.596 ± 0.019
46 | VRWCLPPLFTPL | 0.693 ± 0.059

Row | Sequence | protein stability index
47 | VRWGVVGVQGNW | 0.678 ± 0.021
48 | VRYGSHRNMSLL | 0.819 ± 0.053
49 | VSDLGRFVDRRV | 0.636 ± 0.029
50 | VSEFTSHQYDSE | 0.746 ± 0.048
51 | VSGASHLCQYIK | 0.724 ± 0.072
52 | VSGFEGCYFSDL | 0.712 ± 0.039
53 | VSGFFFWRSSFV | 0.678 ± 0.028
54 | VSGLRRLVAFAR | 0.518 ± 0.0061
55 | VSGVVHRVVVSR | 0.7 ± 0.043
56 | VSLGNVGYFGSE | 0.734 ± 0.039
57 | VSLLSLRAFYKL | 0.667 ± 0.05
58 | VSLSPVFLGFYR | 0.706 ± 0.024
59 | VSLVGGLGFGVG | 0.553 ± 0.028
60 | VSQLGTYICSYL | 0.687 ± 0.053
61 | VSRACYTPPQFY | 0.68 ± 0.13
62 | VSRCHLLDLSLV | 0.642 ± 0.024
63 | VSRGHTEWVGMV | 0.702 ± 0.11
64 | VSRWVVCRGGLW | 0.65 ± 0.078
65 | VSSVVTTSAIKR | 0.715 ± 0.027
66 | VSTPSPPSDSTP | 0.685 ± 0.051
67 | VSTRSTVVVSSL | 0.662 ± 0.02
68 | VSVIPIVISLSL | 0.528 ± 0.036
69 | VSVRGREGLDWK | 0.698 ± 0.019

Row | Sequence | protein stability index
70 | VSVSDSKMARLG | 0.676 ± 0.055
71 | VSVSRGTNCCYD | 0.686 ± 0.023
72 | VSVSSFCVLQSC | 0.547 ± 0.008
73 | VSWGVALAVLRT | 0.603 ± 0.029
74 | VSYEFHTRVSKN | 0.677 ± 0.039
75 | VSYEGIVKDGSG | 0.647 ± 0.083
76 | VTDTFKFYCERL | 0.7274 ± 0.0051
77 | VTFFAFPLFFGF | 0.602 ± 0.041
78 | VTHSASFSDVFR | 0.731 ± 0.034
79 | VTKESPSLCLCV | 0.588 ± 0.041
80 | VTLGLSMVQWTY | 0.5702 ± 0.0025
81 | VTLRASGQVFPF | 0.7891 ± 0.0069
82 | VTMQEKTCQLEA | 0.705 ± 0.1
83 | VTRGGRVFIVDL | 0.807 ± 0.094
84 | VVELRGEKLVGR | 0.6784 ± 0.005
85 | VVEYCEGKAVYF | 0.695 ± 0.025
86 | VVFISGVYCSRL | 0.688 ± 0.1
87 | VVFTTLRHPFRG | 0.699 ± 0.027
88 | VVGCCVTKGGGA | 0.667 ± 0.048
89 | VVGRLRGNWGSI | 0.745 ± 0.039
90 | VVGWGWGGVVRR | 0.763 ± 0.02
91 | VVIGCRRVLGCV | 0.583 ± 0.03
92 | VVLFFGPRWSLG | 0.624 ± 0.068

Row | Sequence | protein stability index
93 | VVLSASAALFTF | 0.578 ± 0.029
94 | VVLWGAVSIVRT | 0.616 ± 0.028
95 | VVPDSGESSASG | 0.654 ± 0.098
96 | VVVARGGEEGWW | 0.656 ± 0.12
97 | VVVLCGGSGGVG | 0.652 ± 0.059
98 | VVVSGGGAGFWL | 0.728 ± 0.019
99 | VVWGGWGGWGCW | 0.81 ± 0.17
100 | VVYWGFVLGFGA | 0.582 ± 0.055
101 | VWGERPRFGGWG | 0.691 ± 0.038
102 | VWGGGRGGGGKG | 0.619 ± 0.031
103 | VWGGNGRAASQL | 0.742 ± 0.019
104 | VWGLGWEFWWGV | 0.7157 ± 0.0021
105 | VWIGMSLSSLVM | 0.512 ± 0.011
106 | VWLSRLVFLSPL | 0.602 ± 0.0046
107 | VWRGCRVGGQGM | 0.687 ± 0.042
108 | VWRGPVVAAGWG | 0.659 ± 0.018
109 | VWRSERCRRGGV | 0.699 ± 0.15
110 | VWSGGDGGGAVV | 0.733 ± 0.051
111 | VWSILSCRTRLL | 0.503 ± 0.02
112 | VWSPGGGAFVGG | 0.815 ± 0.047
113 | VWTPWSTKDCLG | 0.721 ± 0.054
114 | VYDASLPIRFFL | 0.697 ± 0.013
115 | VYFLDPSSPPWF | 0.752 ± 0.011

Row | Sequence | protein stability index
116 | VYRGSQKQRAQG | 0.685 ± 0.024
117 | VYRIAEENRRWV | 0.738 ± 0.12
118 | VYRMYTLKRVKR | 0.686 ± 0.062
119 | WAGQWCRGRAGG | 0.728 ± 0.056
120 | WAIYPDVESVIP | 0.773 ± 0.0081
121 | WALLAAGGGGRG | 0.651 ± 0.074
122 | WARLHLSGRYSL | 0.747 ± 0.02
123 | WAVGRGLVLSST | 0.684 ± 0.042
124 | WCECGVWGGLWG | 0.719 ± 0.021
125 | WCGKVVVGSRQG | 0.68 ± 0.032
126 | WCLVTRGGDRDL | 0.6727 ± 0.0047
127 | WCRHREYFYGSN | 0.657 ± 0.032
128 | WCSVGVSGFVIR | 0.725 ± 0.0075
129 | WDGWPTRSGGTG | 0.738 ± 0.023
130 | WDSPVMCVTIID | 0.628 ± 0.0094
131 | WDYQGIIFVAGG | 0.687 ± 0.0075
132 | WEQQTSLPLLSL | 0.712 ± 0.021
133 | WFAGRDRHRAND | 0.745 ± 0.1
134 | WFCDNHRSFGWG | 0.747 ± 0.07
135 | WFFPPLPPPLPR | 0.686 ± 0.04
136 | WFLCCFGGVSLV | 0.619 ± 0.0064
137 | WFLFIPLACLRP | 0.592 ± 0.0079
138 | WFLVQQCGQMDR | 0.711 ± 0.022

Row | Sequence | protein stability index
139 | WFNRRISPISGI | 0.676 ± 0.059
140 | WFSRVSSASRRS | 0.7073 ± 0.00084
141 | WGACSALRRLGY | 0.684 ± 0.044
142 | WGAGGGGWGGGV | 0.685 ± 0.024
143 | WGEGCGSSEEGE | 0.695 ± 0.087
144 | WGFVCWGCGGCS | 0.746 ± 0.028
145 | WGGEVGQLLELW | 0.714 ± 0.048
146 | WGGGCGRRIGCR | 0.7193 ± 0.007
147 | WGGGGGGSGACL | 0.6974 ± 0.0069
148 | WGGGPGLRVVGG | 0.731 ± 0.026
149 | WGGGRGTAVVGV | 0.657 ± 0.028
150 | WGGRSVGGVVWR | 0.714 ± 0.036
151 | WGLCIGTGWALG | 0.708 ± 0.0092
152 | WGLGLYEENTGC | 0.7468 ± 0.003
153 | WGRCGSVGRGGA | 0.749 ± 0.024
154 | WGRGHPIYVCRV | 0.689 ± 0.013
155 | WGRRCRFIFRGM | 0.654 ± 0.074
156 | WGSSGCLFGTVG | 0.769 ± 0.12
157 | WGSSGWVGEGGG | 0.657 ± 0.044
158 | WGTGGRRGVGHV | 0.709 ± 0.066
159 | WGVGWSGRVGGS | 0.647 ± 0.045
160 | WGWGVASRCCEG | 0.72 ± 0.042

From the supplement of paper PMC10724198
